Data taken from PMC11602157, “ZNF512B binds RBBP4 via a variant NuRD interaction motif and aggregates chromatin in a NuRD complex-independent manner” (Nucleic Acids Research, 2024).

Biological target: RBBP4, recombinant, for fluorescence polarization (human), Q09028
Assay: fluorescence polarisation; competitive: unlabeled peptide (1.0–0.0 mM series) added to preformed complex of 1 nM FAM tracer and 40 nM RBBP4; 50 mM Tris-HCl pH 7.5, 150 mM NaCl, 0.02% Triton X-100; read after 60 min; ki from IC50

RBBP4, recombinant, for fluorescence polarization (human), Q09028, sequence (Q09028 whole entry): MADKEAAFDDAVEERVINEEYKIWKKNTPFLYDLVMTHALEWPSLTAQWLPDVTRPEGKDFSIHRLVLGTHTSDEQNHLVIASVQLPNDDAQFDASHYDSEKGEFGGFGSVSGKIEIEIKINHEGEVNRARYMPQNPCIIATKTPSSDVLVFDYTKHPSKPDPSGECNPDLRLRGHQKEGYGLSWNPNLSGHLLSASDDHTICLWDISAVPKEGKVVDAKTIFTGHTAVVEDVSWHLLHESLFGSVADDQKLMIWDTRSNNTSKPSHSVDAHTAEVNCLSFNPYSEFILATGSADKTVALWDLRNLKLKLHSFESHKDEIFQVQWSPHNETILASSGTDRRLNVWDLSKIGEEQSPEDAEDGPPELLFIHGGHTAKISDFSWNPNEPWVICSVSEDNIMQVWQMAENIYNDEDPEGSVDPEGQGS

Ki: 19 nM
B1: ZNF512B NIM peptide (unlabeled ZNF512B iNIM) (peptide)
chain: KHRRKQKTPKKF
modifications: not checked
